Results reported in US20240287161A1 (NATIONAL UNIVERSITY CORPORATION TOTTORI UNIVERSITY, published 2024).

Tests used:
[1] = target: T1, HCoV-OC43 trimeric S protein (amino acids 12-1299) with T4 foldon, histidine tag and strep-tag (HCoV-OC43, UniProt P36334 12-1291); experiment: ELISA on coated S-trimeric antigen, anti-human IgG-HRP [Human IgG1, NT-108]
T1 chain: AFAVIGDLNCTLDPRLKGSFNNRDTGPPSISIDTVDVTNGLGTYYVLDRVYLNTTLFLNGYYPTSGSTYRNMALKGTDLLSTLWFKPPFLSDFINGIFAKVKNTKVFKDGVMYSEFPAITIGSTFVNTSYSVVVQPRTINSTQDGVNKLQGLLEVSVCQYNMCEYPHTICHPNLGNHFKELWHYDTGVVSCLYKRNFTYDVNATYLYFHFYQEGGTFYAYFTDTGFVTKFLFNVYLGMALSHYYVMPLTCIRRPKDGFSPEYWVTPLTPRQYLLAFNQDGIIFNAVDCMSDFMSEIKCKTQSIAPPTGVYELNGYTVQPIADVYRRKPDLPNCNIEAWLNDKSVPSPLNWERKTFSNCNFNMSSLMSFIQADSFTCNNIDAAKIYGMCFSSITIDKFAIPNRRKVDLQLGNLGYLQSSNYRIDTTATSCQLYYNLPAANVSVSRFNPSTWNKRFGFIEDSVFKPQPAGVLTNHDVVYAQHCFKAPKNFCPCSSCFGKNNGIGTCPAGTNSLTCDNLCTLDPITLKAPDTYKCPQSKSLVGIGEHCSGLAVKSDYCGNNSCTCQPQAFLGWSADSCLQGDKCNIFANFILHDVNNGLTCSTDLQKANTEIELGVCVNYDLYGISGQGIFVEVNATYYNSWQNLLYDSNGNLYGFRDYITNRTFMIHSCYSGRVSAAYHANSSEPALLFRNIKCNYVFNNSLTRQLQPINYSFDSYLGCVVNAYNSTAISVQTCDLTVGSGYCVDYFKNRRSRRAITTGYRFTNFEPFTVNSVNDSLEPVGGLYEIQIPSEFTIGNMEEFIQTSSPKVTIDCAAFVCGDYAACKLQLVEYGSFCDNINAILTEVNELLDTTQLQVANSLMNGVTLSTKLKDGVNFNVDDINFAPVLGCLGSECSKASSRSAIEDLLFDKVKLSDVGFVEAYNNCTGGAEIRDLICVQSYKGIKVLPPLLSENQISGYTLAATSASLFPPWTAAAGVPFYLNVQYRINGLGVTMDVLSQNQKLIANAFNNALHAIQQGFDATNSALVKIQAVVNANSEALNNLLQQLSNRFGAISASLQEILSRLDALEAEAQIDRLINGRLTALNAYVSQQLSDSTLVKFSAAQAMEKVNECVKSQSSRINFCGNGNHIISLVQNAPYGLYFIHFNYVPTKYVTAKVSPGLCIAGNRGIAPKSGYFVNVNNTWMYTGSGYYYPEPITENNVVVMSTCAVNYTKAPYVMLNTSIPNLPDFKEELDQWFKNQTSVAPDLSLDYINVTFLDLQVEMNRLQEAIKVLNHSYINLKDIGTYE

[2] = target: T2, HCoV-NL63 trimeric S protein (amino acids 22-1293) with T4 foldon, histidine tag and strep-tag (HCoV-NL63, UniProt Q6Q1S2 23-1293); experiment: as above
T2 sequence: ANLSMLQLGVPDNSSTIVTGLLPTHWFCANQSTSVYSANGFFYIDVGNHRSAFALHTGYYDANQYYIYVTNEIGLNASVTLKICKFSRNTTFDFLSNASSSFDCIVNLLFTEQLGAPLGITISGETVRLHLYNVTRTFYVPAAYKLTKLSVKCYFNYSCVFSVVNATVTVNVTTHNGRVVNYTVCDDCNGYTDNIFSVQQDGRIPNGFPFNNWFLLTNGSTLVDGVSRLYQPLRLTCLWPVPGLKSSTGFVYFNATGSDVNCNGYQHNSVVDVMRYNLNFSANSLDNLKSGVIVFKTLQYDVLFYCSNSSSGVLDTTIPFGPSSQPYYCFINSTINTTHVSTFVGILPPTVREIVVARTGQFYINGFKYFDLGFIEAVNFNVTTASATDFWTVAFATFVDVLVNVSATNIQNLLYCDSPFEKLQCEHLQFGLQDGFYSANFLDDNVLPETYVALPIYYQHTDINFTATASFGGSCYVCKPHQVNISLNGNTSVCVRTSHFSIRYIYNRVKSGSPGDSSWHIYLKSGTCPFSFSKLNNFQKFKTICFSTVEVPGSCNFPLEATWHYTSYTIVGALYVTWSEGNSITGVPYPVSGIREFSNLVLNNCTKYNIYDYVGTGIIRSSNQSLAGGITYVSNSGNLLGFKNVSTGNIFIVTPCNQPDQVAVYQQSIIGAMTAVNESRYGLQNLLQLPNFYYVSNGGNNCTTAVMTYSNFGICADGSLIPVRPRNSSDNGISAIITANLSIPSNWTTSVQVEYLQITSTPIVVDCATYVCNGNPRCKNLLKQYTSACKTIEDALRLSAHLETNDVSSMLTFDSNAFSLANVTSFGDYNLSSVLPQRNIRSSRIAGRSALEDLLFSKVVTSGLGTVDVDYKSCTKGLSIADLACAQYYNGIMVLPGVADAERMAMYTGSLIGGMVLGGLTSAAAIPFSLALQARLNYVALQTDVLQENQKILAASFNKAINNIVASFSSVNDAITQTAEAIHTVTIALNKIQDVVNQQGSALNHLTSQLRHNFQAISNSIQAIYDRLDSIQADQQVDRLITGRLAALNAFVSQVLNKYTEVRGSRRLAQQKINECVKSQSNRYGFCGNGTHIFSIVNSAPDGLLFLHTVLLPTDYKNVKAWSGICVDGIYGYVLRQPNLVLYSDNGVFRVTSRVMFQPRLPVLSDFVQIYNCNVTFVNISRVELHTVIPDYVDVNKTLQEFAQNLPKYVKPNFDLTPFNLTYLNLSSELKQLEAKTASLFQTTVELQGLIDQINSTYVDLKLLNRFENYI

B1: NT-108 (recombinant human IgG1/kappa antibody) (antibody, V domains shown)
VH: EVQLQQSGPGLVKPSQTLSLTCSISGDSVSSNSAAWNWIRQSPSRGLEWLGRTYYRSKWYNDYAGTVKSRIAINPDTSKNQFSLHLNSVTPEDTAVYFCARVISVAGYAFDIWGQGTMVTVSS
VL: EIVLTQSPGTLSLSPGERATLSCRASQSVSSTFLAWYQQKPGQAPRLLIYGASYMATGIPDRFSGSGSGTDFTLTISRLEPEDFAVYYCQQYGSSLTFGGGTKLEIK
[1]
  binding result: no binding (tested: 1000 ng/ml)
[2]
  binding result: no binding (tested: 1000 ng/ml)
